Measured values taken from the DeepSol protein solubility set.

test: soluble on expression in E. coli; label from the status in PepcDB or PDB records

| Sequence | soluble on expression in E. coli |
| --- | --- |
| MGHHHHHHSHMRRFQRSTVIDAPRELVWAFHEQADVLEQLTPPWLPVEVVRREGGLGPGAVSEFRLWLGPVPIRWVATHNDDYEPGRCFCDRQSQGPFADWLHRHIFSREGDRTRLIDEVEYALPGGWLPELSVCPVVDAQLERLFAYRQQVTKQWCESRRDAFLQSNRTTKGLQSL | not soluble |
| MGHHHHHHSHMSDAGMPSLSDPGMSLAAYALKHNIQYDVLPGANALTTAFCASGFLEGRFFYAGFLPHKSKERRLKIAKILNALAYLEEKTPVVFYESPHRLLETLKDLNDLAKGMHLFAAKELTKLHQQYYLGEVSQIIERLQQSTIQGEWVLVLLNEKKIEPCMGLSALLELDLPPKIKAKIEAVMTQKNAKELYFQRLLEEKNQ | not soluble |
| MGHHHHHHSHMSFSKESSRLFGFVAGIKFPKMIQKVINENYVKYFNINMSEFKAPCEYESLNALFTRTLQIPRKFEEGFISPSDGKILECGSTFLANEEHFAFSIKGHAYSVEELLKDSFEKDELKNGLDYVNIYLSPKDYHRYHSPCDMQILSATYTSGVLYSVNEKHLERISNLYVKNERVSLKCQNEKGIFWLVFVGAQNVGKMRFNFDASIQTNAKISHNFTRKYENLNFKKGEELGNFELGSTIVLISQKGLLTFNLKVGQGIKFGEKIAD | soluble |
| MGHHHHHHSHMSIPSSQYGFVFNKQSGLKLRNDLPVHKPKAGQLLLKVDAVGLCHSDLHVIYEGLDCGDNYVMGHEIAGTVAAVGDDVINYKVGDRVACVGPNGCGGCKYCRGAIDNVCKNAFGDWFGLGYDGGYQQYLLVTRPRNLSRIPDNVSADVAAASTDAVLTPYHAIKMAQVSPTSNILLIGAGGLGGNAIQVAKAFGAKVTVLDKKKEARDQAKKLGADAVYETLPESISPGSFSACFDFVSVQATFDVCQKYVEPKGVIMPVGLGAPNLSFNLGDLALREIRILGSFWGTTNDLDDVLKLVSEGKVKPVVRSAKLKELPEYIEKLRNNAYEGRVVFNP | soluble |
| MGHHHHHHSHMSPAPVIPSNTDYPGPHHFEVTFQQSSTAKSATWTYSPLLKKLYCQIAKTCPIQIKVSTPPPPGTAIRAMPVYKKAEHVTDVVKRCPNHELGRDFNEGQSAPASHLIRVEGNNLSQYVDDPVTGRQSVVVPYEPPQVGTEFTTILYNFMCNSSCVGGMNRRPILIIITLEMRDGQVLGRRSFEGRICACPGRDRKADEDHYREQQALNE | soluble |
| MGHHHHHHSHMTLEELVACDNAAQKMQTVTAAVEELLVAAQRQDRLTVGVYESAKLMNVDPDSVVLCLLAIDEEEEDDIALQIHFTLIQSFCCDNDINIVRVSGNARLAQLLGEPAETQGTTEARDLHCLPFLQNPHTDAWKSHGLVEVASYCEESRGNNQWVPYISLQER | soluble |
| MGHHHHHHSHMVAHNQVAADNAVSTAAEPRRRPEPSSSSSSSPAAPARPRPCPAVPAPAPGDTHFRTFRSHADYRRITRASALLDACGFYWGPLSVHGAHERLRAEPVGTFLVRDSRQRNCFFALSVKMASGPTSIRVHFQAGRFHLDGSRESFDCLFELLEHYVAAPRRMLGAPLRQRRVRPLQELCRQRIVATVGRENLARIPLNPVLRDYLSSFPFQI | not soluble |
| MGHHHHHHSHMVGSRRVKAQTFAERRERSFSRSWSDPTPMKADTSHDSRDSSDLQSSHCTLDEAFEDLDWDTEKGLEAVACDTEGFVPPKVMLISSKVPKAEYIPTIIRRDDPSIIPILYDHEHATFEDILEEIERKLNVYHKGAKIWKMLIFCQGGPGHLYLLKNKVATFAKVEKEEDMIHFWKRLSRLMSKVNPEPNVIHIMGCYILGNPNGEKLFQNLRTLMTPYRVTFESPLELSAQGKQMIETYFDFRLYRLWKSRQHSKLLDFDDVL | not soluble |
| MGHHHHHHSHMVPGSEGPARAGSVVADVVFVIEGTANLGPYFEGLRKHYLLPAIEYFNGGPPAETDFGGDYGGTQYSLVVFNTVDCAPESYVQCHAPTSSAYEFVTWLDGIKFMGGGGESCSLIAEGLSTALQLFDDFKKMREQIGQTHRVCLLICNSPPYLLPAVESTTYSGCTTENLVQQIGERGIHFSIVSPRKLPAL | not soluble |
| MGHHHHHHSHMVSPSKAVIVPGKIGGDETTHGWYGWVKKELEKIPGFQCLAKNMPDPITARESIWLPFMETELHCDEKTIIIGHSSGAIAAMRYAETHRVYALILVSAYTSEFGDENERASGYFSRPWQWEKIKANCPHIVQFGSTDDPFLPWKEQQEVADSWTPNCTNSLTVVTFRTQSSMN | not soluble |
| MGHHHHHHSHMYFVGCGYNAFPVGSEYADFPHMDDKQKDREIRKFRYIIHAEQNALTFRCQEIKPEERSMIFVTKCPCDECVPLIKGAGIKQIYAGDVDVGKKKADISYMRFGELEGVSKFTWQLNPSGAYGLEQNEPERRERDLSHRRKSSTRTRSCASESTKKACLHCRGTSRTFHCTSKIQPCSFRK | not soluble |
| MGHHHHHHSHRRERACPERALDLENIMRKFSGSCRCCAKQIKFYRMRHHYKSCKKYQDEYGVSSIIPNFQISQDSVGNSNRSETSTSDNTETYQENTSSSGHPTFKCPLCQESNFTRQRLLDHCNSNHLFQIVPVTCPICVSLPWGDPSQITRNFVSHLNQRHQFDYGEFVNLQLDEETQYQTAVEESFQVNI | not soluble |
| MGHHHHHHSHSGGRNKIRKILDKTRFSILPPKLFSDGGLSQSQDDSIVGTRHCRHSLAIMPIPGTLSSSSPDLLQPTTSMLDFSNPSDIPDQVIRVFKVDQQSCYIIISKDTTAKEVVFHAVHEFGLTGASDTYSLCEVSVTPEGVIKQRRLPDQFSKLADRIQLNGRYYLKNNMETETLC | not soluble |
| MGHHHHHHSHSIKPSTNLVFAKVLEKTRHPNANHLNLVKVKANQKVYEIVCGANNFSVHNWVVLAKLNAELANGLKITPRELRGYVSNGMLCAYSEINPQATSFLTSTDLDGILVLDDNYDHYKTPNQIFNLDDVILDLSIPSNRNDLNGYFWIAKELCAYFDFEYVVDATINHRPHKEIIDVRI | not soluble |
| MGIHKPKFYAVRAGRDKGVFSSWEECRKAIYGFSGAVYRSFPTLEEAQAWFKGETLSDPLKAEDDSLRDDRTEYDVYTDGSYVNGQYAWAYAFVKDGKVHYEDADVGKNPAAATMRNVAGEIAAALYAVKKASQLGVKIRILHDYAGIAFWATGEWKAKNEFTQAYAKLMNQYRGIYSFEKVKAHSGNEFNDYVDMKAKSALGIRDLEHHHHHH | not soluble |
| MGILDKVKNLLSQNADKVETVINKAGEFVDEQTQGNYSDAIHKLHDAASNVVGMSDQQS | soluble |
| MGKATWRQVWERARALAGAAALAVLAGCAAPGAQDPGQARNTAREAYIYAYPMLYHYRSMYEQAIDTASPAYLGGFGVFQHRAEPYTPQSVDVATPNVDTLYSRAWLDLRAEPWVLSLPAVPKSRYNAFQLVDMYTYNLAYLGTRATGFGSGHYLIAGPGWTGPVPKGITQVVRADTDFVAVLGRTALNGPADIKAVHALQARYGLRPLSAYTGTAAPAGAPPVDWLPWNEQRASSIGFIAYLNQLLAHTQPQPESEADMMARFARIGVAPGRDFEPARLDAATRRAMDAGIVDAQQAIEQGARHAAAPATPASLYGSREQLGGDYLKRAVAAAVGIYGNTADEAIYLTIGEDAQGRPLDGARAYELRFAPGRQPPVRFFWSISVYALPARGLAENPIDRYAIGSRTKGIKRGRDGSLTVYLQHDAPARAHAPNWLPTPAGPFVVVARFYGPQPALRDGAWVMPALVPARLEHHHHHH | not soluble |
| MGKMRTPQEVPARLDALAEAARKLKFDVREPVDAGAGAIGAVHSLDYLRFLREAHARWKQLPDDWGDEVVSNVFVREPNALRGVLAQAARYLADGSCPVGPHTWQSAYWAAQCAISGAQTLLDGERHAYALCRPPGHHARRDAAGGFCYLNNAAIAAQMLTQRYKRVAILDTDMHHGQGIQEIFYERSDVLYVSIHGDPENFYPVVAGFENERGAGEGYGYNVNLPMPHGSPEPVFFDRLQQAQRAIELFQPDALVLSLGFDVFEKDPQAMVAVSANGFERLGQAIGAFKLPTLIVQEGGYYIEGLEDNAERFFAGLAKALEHHHHHH | not soluble |
